The record followed here is FireProtDB (doi:10.1038/s41598-020-57873-3).

A word on the Tm: it is the temperature at the midpoint of the melting transition.

B1: I144P, Q8GB52 (parent)
chain: MLKKVLSCCIAATFGIYSASSLAQSSVINSTENSQQPIAPLVLASSDDAITDRYIVVLKQPQMLMNDAAGLQQFTQQTVGLMANSFSIKTDDVFDSSIIGFVANLDALQLKQLRRDSRVEYIEQDQILSIDPVVSNEAVQSNAIWGLDRIDQRNLPLDRNYNANFDGFGVTAYVIDTGVNNNHEEFGGRSVSGYDFVDNDADSSDCNGHGTHVAGTIGGSQYGVAKNVNIVGVRVLSCSGSGTTSGVISGVDWVAQNASGPSVANMSLGGGQSTALDSAVQGAIQSGVSFMLAAGNSNADACNTSPARVPSGVTVGSTTSSDSRSSFSNWGSCVDLFAPGSQIKSAWYDGGYKTISGTSMATPHVAGVAALYLQENNGLTPLQLTGLLNSRASENKVSDTRGTTNKLLYSLADSGCEPDCGGPTPGPDPDGKLVSGVPVNGLSGSRGQKDYFYMDLQQGQQLTVVTIGGTGDADLYLRFGDKPTLNTWDCRPYRSGNSETCTVNVTQSGRYHVMLNAYSAYSGLTLQANF

In this series the parent is B1. Conditions: Vibrio sp. PA-44, pH 8.6, Thermal, structure 1SH7, whole UniProt chain shown.
The mark [1] stands for this setting: CD, Glycine 25 mM, NaCl and CaCl2 100 mM and 15 mM.
Where [2] appears, read: CD, glycine, Nacl / Cacl2 100000 / 15000, transition: 2, reversible: no.
The mark [3] stands for this setting: DSC, Glycine 25 mM, NaCl and CaCl2 100 mM and 15 mM.
Setting [4] is: DSC, glycine, Nacl / Cacl2 100000 / 15000, transition: 2, reversible: no.

Regarding MLKKVLSCCIAATFGIYSASSLAQSSVINSTENSQQPIAPLVLASSDDAITDRYIVVLKQPQMLMNDAAGLQQFTQQTVGLMANSFSIKTDDVFDSSIIGFVANLDALQLKQLRRDSRVEYIEQDQILSIDPVVSNEAVQSNAPWGLDRIDQRNLPLDRNYNANFDGFGVTAYVIDTGVNNNHEEFGGRSVSGYDFVDNDADSSDCNGHGTHVAGTIGGSQYGVAKNVNIVGVRVLSCSGSGTTSGVISGVDWVAQNASGPSVANMSLGGGQSTALDSAVQGAIQSGVSFMLAAGNSNADACNTSPARVPSGVTVGSTTSSDSRSSFSNWGSCVDLFAPGSQIKSAWYDGGYKTISGTSMATPHVAGVAALYLQENNGLTPLQLTGLLNSRASENKVSDTRGTTNKLLYSLADSGCEPDCGGPTPGPDPDGKLVSGVPVNGLSGSRGQKDYFYMDLQQGQQLTVVTIGGTGDADLYLRFGDKPTLNTWDCRPYRSGNSETCTVNVTQSGRYHVMLNAYSAYSGLTLQANF [I144P], the Tm amounted to 65.1 °C under setting [1], 65.1 °C under setting [2], 65.7 °C under setting [3] and 65.7 °C under setting [4]. Further, the “change of melting temperature, mutant - wild type (higher = more stable)” value (“change of melting temperature, mutant” for short) by setting is: under setting [1], 3.2 °C; under setting [2], 3.2 °C; under setting [3], 1.8 °C; under setting [4], 1.8 °C. The “unfolding enthalpy (calorimetric)” value under setting [3] is 137 kcal/mol and the “unfolding enthalpy (calorimetric)” value under setting [4] worked out at 136 kcal/mol.
For MLKKVLSCCIAATFGIYSASSLAQSSVINSTENSQQPIAPLVLASSDDAITDRYIVVLKQPQMLMNDAAGLQQFTQQTVGLMANSFSIKTDDVFDSSIIGFVANLDALQLKQLRRDSRVEYIEQDQILSIDPVVSNEAVQSPAPWGLDRIDQRNLPLDRNYNANFDGFGVTAYVIDTGVNNNHEEFGGRSVSGYDFVDNDADSSDCNGHGTHVAGTIGGSQYGVAKNVNIVGVRVLSCSGSGTTSGVISGVDWVAQNASGPSVANMSLGGGQSTALDSAVQGAIQSGVSFMLAAGNSNADACNTSPARVPSGVTVGSTTSSDSRSSFSNWGSCVDLFAPGSQIKSAWYDGGYKTISGTSMATPHVAGVAALYLQENNGLTPLQLTGLLNSRASENKVSDTRGTPNKLLYSLADSGCEPDCGGPTPGPDPDGKLVSGVPVNGLSGSRGQKDYFYMDLQQGQQLTVVTIGGTGDADLYLRFGDKPTLNTWDCRPYRSGNSETCTVNVTQSGRYHVMLNAYSAYSGLTLQANF [N142P I144P T404P], the Tm reads like this: under setting [1], 69.2 °C; under setting [2], 69.2 °C; under setting [3], 73.6 °C; under setting [4], 73.6 °C. In addition, the “change of melting temperature, mutant” value under setting [1] worked out at 7.3 °C; the “change of melting temperature, mutant” value under setting [2] worked out at 7.3 °C; the “change of melting temperature, mutant” value under setting [3] came out at 9.7 °C; the “change of melting temperature, mutant” value under setting [4] came to 9.7 °C. For the same variant, the “unfolding enthalpy (calorimetric)” value amounted to 167 kcal/mol under setting [3] and 166 kcal/mol under setting [4].
As to MLKKVLSCCIAATFGIYSASSLAQSSVINSTENSQQPIAPLVLASSDDAITDRYIVVLKQPQMLMNDAAGLQQFTQQTVGLMANSFSIKTDDVFDSSIIGFVANLDALQLKQLRRDSRVEYIEQDQILSIDPVVSNEAVQSNAIWGLDRIDQRNLPLDRNYNANFDGFGVTAYVIDTGVNNNHEEFGGRSVSGYDFVDNDADSSDCNGHGTHVAGTIGGSQYGVAKNVNIVGVRVLSCSGSGTTSGVISGVDWVAQNASGPSVANMSLGGGQSTALDSAVQGAIQSGVSFMLAAGNSNADACNTSPARVPSGVTVGSTTSSDSRSSFSNWGSCVDLFAPGSQIKSAWYDGGYKTISGTSMATPHVAGVAALYLQENNGLTPLQLTGLLNSRASENKVSDTRGTPNKLLYSLADSGCEPDCGGPTPGPDPDGKLVSGVPVNGLSGSRGQKDYFYMDLQQGQQLTVVTIGGTGDADLYLRFGDKPTLNTWDCRPYRSGNSETCTVNVTQSGRYHVMLNAYSAYSGLTLQANF [T404P], the Tm reads like this: under setting [1], 61.6 °C; under setting [3], 64.5 °C; under setting [4], 64.5 °C. Moreover, the “change of melting temperature, mutant” value is -0.3 °C under setting [1], 0.6 °C under setting [3] and 0.6 °C under setting [4]. Also, the “unfolding enthalpy (calorimetric)” value reads like this: under setting [3], 108 kcal/mol; under setting [4], 108 kcal/mol.
